Target: T1, Pmt1 (protein O-mannosyltransferase 1), C-terminal 3×FLAG-tagged (S. cerevisiae, UniProt P33775 1-817, N-glycan on N390)
T1 sequence (looked up): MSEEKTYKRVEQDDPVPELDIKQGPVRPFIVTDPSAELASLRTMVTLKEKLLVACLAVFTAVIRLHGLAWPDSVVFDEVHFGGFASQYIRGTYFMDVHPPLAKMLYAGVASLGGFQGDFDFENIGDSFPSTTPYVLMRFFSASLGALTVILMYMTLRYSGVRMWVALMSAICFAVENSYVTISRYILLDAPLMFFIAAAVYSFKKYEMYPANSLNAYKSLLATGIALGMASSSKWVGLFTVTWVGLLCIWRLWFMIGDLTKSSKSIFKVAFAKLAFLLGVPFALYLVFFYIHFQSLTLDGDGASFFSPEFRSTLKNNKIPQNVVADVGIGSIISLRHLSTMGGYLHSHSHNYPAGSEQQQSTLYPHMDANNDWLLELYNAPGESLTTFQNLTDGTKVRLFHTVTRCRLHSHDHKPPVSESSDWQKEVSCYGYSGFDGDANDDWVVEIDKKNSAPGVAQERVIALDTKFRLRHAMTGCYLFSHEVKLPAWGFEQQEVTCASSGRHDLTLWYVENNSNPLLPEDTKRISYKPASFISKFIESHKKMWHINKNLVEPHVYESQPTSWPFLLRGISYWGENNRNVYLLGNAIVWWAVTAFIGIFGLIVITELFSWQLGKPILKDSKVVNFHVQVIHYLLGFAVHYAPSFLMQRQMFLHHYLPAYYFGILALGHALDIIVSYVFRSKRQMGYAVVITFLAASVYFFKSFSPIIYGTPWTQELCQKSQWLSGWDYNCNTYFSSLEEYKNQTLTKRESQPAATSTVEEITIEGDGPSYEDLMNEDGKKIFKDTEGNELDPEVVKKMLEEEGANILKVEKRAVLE
Test: cryo-EM structure

stoichiometry N: 1
B1: Pmt2 (protein O-mannosyltransferase 2) (enzyme, S. cerevisiae, UniProt P31382 1-759, looked up)
chain: MSSSSSTGYSKNNAAHIKQENTLRQRESSSISVSEELSSADERDAEDFSKEKPAAQSSLLRLESVVMPVIFTALALFTRMYKIGINNHVVWDEAHFGKFGSYYLRHEFYHDVHPPLGKMLVGLSGYLAGYNGSWDFPSGEIYPDYLDYVKMRLFNASFSALCVPLAYFTAKAIGFSLPTVWLMTVLVLFENSYSTLGRFILLDSMLLFFTVASFFSFVMFHNQRSKPFSRKWWKWLLITGISLGCTISVKMVGLFIITMVGIYTVIDLWTFLADKSMSWKTYINHWLARIFGLIIVPFCIFLLCFKIHFDLLSHSGTGDANMPSLFQARLVGSDVGQGPRDIALGSSVVSIKNQALGGSLLHSHIQTYPDGSNQQQVTCYGYKDANNEWFFNRERGLPSWSENETDIEYLKPGTSYRLVHKSTGRNLHTHPVAAPVSKTQWEVSGYGDNVVGDNKDNWVIEIMDQRGDEDPEKLHTLTTSFRIKNLEMGCYLAQTGNSLPEWGFRQQEVVCMKNPFKRDKRTWWNIETHENERLPPRPEDFQYPKTNFLKDFIHLNLAMMATNNALVPDPDKFDYLASSAWQWPTLNVGLRLCGWGDDNPKYFLLGTPASTWASSVAVLAFMATVVILLIRWQRQYVDLRNPSNWNVFLMGGFYPLLAWGLHYMPFVIMSRVTYVHHYLPALYFALIILAYCFDAGLQKWSRSKCGRIMRFVLYAGFMALVIGCFWYFSPISFGMEGPSSNFRYLNWFSTWDIADKQEA
modifications: N-glycan on N131

Source: paper PMC6684406 (Nature structural & molecular biology, 2019)
